No end group written: not given here. Me3 = tri-methyl on lysine side chain

Experiment [1] deals with tandem tudor domain (TTD) of UHRF1. Kind of experiment: fluorescence polarisation.
Experiment [2] shares this target. Kind of experiment: AlphaScreen or HTRF. (In general: In Alpha technology, singlet oxygen from a donor bead excites a nearby acceptor bead.)

The IC50 is the midpoint of a concentration-inhibition curve. A high value points to weaker potency in that assay. As for ARTKQTARKSTGEW (here or on the partner: trimethyl-lysine at K9) [H3K9me3 competition peptide (high affinity competitor)], the IC50 in experiment [1] came out at 12 µM; in experiment [2] it was 6 µM. ARTK(Me3)QTARKSTGEW [H3K4me3 competition peptide (low affinity competitor)]: the IC50 in experiment [2] is 95 µM.

Values taken from PMC4467374.
